# Test results published in IntAct's records for PubMed 24413433.
# B1: Telomere repeats-binding bouquet formation protein 1 (Mus musculus), Q8C0V1-1 (parent)
# chain: MESEKPKKTQEMKTDLKLLLECLKYHMGNPLSQKEVLITIHSVCKQNSDAGIYFREIGGLMFIINLAKSSEQSLVKEAALYTLGSIAEENVYCQQSLCTSELFQDLTGLLTNDDSNTNLKRMSVYVLLVLVSNNRNGQTLVREVGCIEVLSQMFRTVLSNYELNLSDNSVFQSYLLWSSVCSTLCVCVNNPQNDENQMLCCSLFPCVNEWLMNCMRPEVIRPICSFIGLTLANNTHAQNCFVSSGGLDVLCQVLVQLESDSHNTLSSAKLAVIVTKTMDACITDNSAAFTVVLSKYHIVSTLLALLLHESLDSREKFSIILAIGHCTEDCEKNQYELLKNNGLPLMIQALTEFKNEDLSKAATYVLHNCKKITGKLSLSLGQNSFGENEIELKDISEKETLREHWKAAKEILCRIKQFEKGGKEEKQQNRSGHYKDNTPSMKVNIQTNLKRLCADSTGGTRAEDKDINQSRELRSYKPSEIMSKACANENQLTTRKKNTNPVHPFCKEKGQSKIVHETTPSCAQNLDKEKTFDQKDSVSQSSDQVLKHLPHTVKNRKQVPETDPFTLCLDIIDREVGIQATDSCSRMLKYTCSGCIVARKLLNSRNFSKFLHSCAYQCVHHKVIMEAEDKYKNELRKTFICAKKILLTPCRRRQLCKESTASEELKIVHQKPDSKKLPGLEAQALNTSIPEAMERRSPVPGQSGLHKKRRIRKDFTKEEVNYLFHGVKTMGNHWNSILWSFPFQKGRRAVDLAHKYHRLIKGPSCAAL
# partner: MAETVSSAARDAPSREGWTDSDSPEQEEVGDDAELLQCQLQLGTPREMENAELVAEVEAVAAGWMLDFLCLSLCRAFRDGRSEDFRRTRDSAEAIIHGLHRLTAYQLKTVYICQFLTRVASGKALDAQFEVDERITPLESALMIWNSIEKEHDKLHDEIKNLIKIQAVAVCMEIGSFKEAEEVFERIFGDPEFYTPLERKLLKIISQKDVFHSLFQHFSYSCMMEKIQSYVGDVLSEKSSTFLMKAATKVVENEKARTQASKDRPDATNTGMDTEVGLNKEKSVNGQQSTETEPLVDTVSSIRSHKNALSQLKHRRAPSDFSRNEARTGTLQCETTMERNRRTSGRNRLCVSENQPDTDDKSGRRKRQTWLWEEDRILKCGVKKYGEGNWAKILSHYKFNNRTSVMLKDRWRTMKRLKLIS
# Variants of: B1
# Conditions: with terf1_mouse Terf1, P70371
row,Variant,effect of a mutation on the interaction
1,T648D,disrupting interaction strength
